IntAct's records for PubMed 23066109

B1: Tudor domain-containing protein 3 (Homo sapiens), Q9H7E2 (parent)
chain: MLRLQMTDGHISCTAVEFSYMSKISLNTPPGTKVKLSGIVDIKNGFLLLNDSNTTVLGGEVEHLIEKWELQRSLSKHNRSNIGTEGGPPPFVPFGQKCVSHVQVDSRELDRRKTLQVTMPVKPTNDNDEFEKQRTAAIAEVAKSKETKTFGGGGGGARSNLNMNAAGNRNREVLQKEKSTKSEGKHEGVYRELVDEKALKHITEMGFSKEASRQALMDNGNNLEAALNVLLTSNKQKPVMGPPLRGRGKGRGRIRSEDEEDLGNARPSAPSTLFDFLESKMGTLNVEEPKSQPQQLHQGQYRSSNTEQNGVKDNNHLRHPPRNDTRQPRNEKPPRFQRDSQNSKSVLEGSGLPRNRGSERPSTSSVSEVWAEDRIKCDRPYSRYDRTKDTSYPLGSQHSDGAFKKRDNSMQSRSGKGPSFAEAKENPLPQGSVDYNNQKRGKRESQTSIPDYFYDRKSQTINNEAFSGIKIEKHFNVNTDYQNPVRSNSFIGVPNGEVEMPLKGRRIGPIKPAGPVTAVPCDDKIFYNSGPKRRSGPIKPEKILESSIPMEYAKMWKPGDECFALYWEDNKFYRAEVEALHSSGMTAVVKFIDYGNYEEVLLSNIKPIQTEAWEEEGTYDQTLEFRRGGDGQPRRSTRPTQQFYQPPRARN

Variants of: B1
Settings: with rpb1_human POLR2A

effect of a mutation on the interaction	Variant
increasing interaction	Y566W
disrupting interaction	Y566F
disrupting interaction	D569A
decreasing interaction	W567S

Variants of: B1
Settings: with rpb1_human POLR2A
Remark: another data set of the same source

effect of a mutation on the interaction	Variant
with no effect	Y566F
